Source: article PMC7793685
Residue numbers refer to the chain shown, from its start.

How the values were obtained:
[1] = test system: T1, MBP-MogR (Bacillus thuringiensis 407), ORF:ee0ae10c; test: EMSA
T1 sequence: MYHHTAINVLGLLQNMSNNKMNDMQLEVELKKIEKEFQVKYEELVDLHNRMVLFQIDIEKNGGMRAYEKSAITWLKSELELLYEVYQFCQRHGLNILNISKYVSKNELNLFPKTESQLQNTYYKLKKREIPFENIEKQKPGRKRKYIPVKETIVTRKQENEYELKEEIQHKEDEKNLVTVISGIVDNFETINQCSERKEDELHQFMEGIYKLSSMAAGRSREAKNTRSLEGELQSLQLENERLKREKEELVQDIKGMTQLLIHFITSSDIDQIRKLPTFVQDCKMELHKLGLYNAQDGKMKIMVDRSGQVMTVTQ

[2] = test system: T2, MBP-MogRQN→AA Q119A;N120A (Bacillus thuringiensis 407), ORF:ee0ae10c; test: EMSA
T2 sequence: T1 sequence with Q119A, N120A

Sequence	binding [1]	binding [2]
CAACTATCATAATATCACCTTTTCGGTAAACAAAGATAATCTAATATTAGAGTTTTTTTTTAAAGTTTGCAATAATCCTTTTAATAATTATGTAATAAAAAATGAATATATTGTTAAACTGTTATTTTTTTATATTTATTAATTCGAATTTTTAGTTGACACCCG (double strand) [fla promoter fragment]	binds	no binding
TTACAGAAATGAAATTTACGGATAACTATATTTATATAATTTTTTCGGTTCATATTTTTATTTAACAGTAAATTATCGATCGTAATCGACAAAATTTTTCTATTTACGCATTAAAAATTTAATGTTTTAATGAACAACATAACTGGTATGACCAGACAGAAAGGATAAGG (double strand) [hbl promoter fragment]	binds	–
